According to paper PMC10307625, “Inhibiting membrane rupture with NINJ1 antibodies limits tissue injury” (Nature, 2023):

Biological target: the molecule itself
Assay: SEC; purified Flag–NINJ1 alone on Superose 6 Increase 10/300 GL; 20 mM HEPES pH 7.5, 150 mM NaCl, 0.005% LMNG, 0.0005% CHS; peak at 8.5 ml retention volume

B1: N-terminally Flag-tagged mouse NINJ1 (natural protein, UniProt O70131 1-152, looked up)
chain: MESGTEEYELNGDLRPGSPGSPDALPPRWGLRNRPINVNHYANKKSAAESMLDIALLMANASQLKAVVEQGNDFAFFVPLVVLISISLVLQIGVGVLLIFLVKYDLNNPAKHAKLDFLNNLATGLVFIIVVVNIFITAFGVQKPVMDVAPRQ
notes: NINJ1 (ninjurin-1), mouse, expressed from pRK-Flag-mNINJ1; Membrane protein solubilised in 1% LMNG / 0.1% CHS; the oligomer size is heterogeneous and no copy number is told; also called Flag–NINJ1; recombinant NINJ1; source: Expi293F cells, transiently transfected, purified (anti-Flag M2 resin, Superose 6 SEC) in LMNG/CHS; not shown: FLAG, N-terminal, kept
B1: binds.
